# Assay results from US20240190960A1 (Chugai, published 2024).
# Where a chain is given by its changes, count along the chain named.
# B1: CLA0022 Fab fragment (from CLA0022VH-F760mnP17/CLA0022VL-k0C) (Fab, V domains shown)
# VH: QSLEESGGDLVKPGASLTLTCTASGFSFSSSYWIYWVRQAPGKGLEWIACIYAGVNDITYYANWAKGRFTISKTSSTTVTLQMTSLTAADTATYFCAKGSPDDAFHSWGPGTLVTVSS
# VL: DVVMTQTPASVSEPVGGTVTIKCQASQSIGNYLAWYQQKPGQPPKLLIYYASNLASGVSSRFKGSRSGTEFTLTINDLECADAATYYCQCAYYDSVYVTFGGGTEVVVKR
# notes: Fab prepared from the full antibody with the Pierce Fab Preparation Kit; Rabbit-derived variable regions on human constant regions; also called clamping antibody CLA0022
# B2: CLA0028 Fab fragment (from CLA0028VH-F760mnP17/CLA0028VL-k0C) (Fab, V domains shown)
# VH: B1 VH with V55S, N56T, D57S, I58S, N63S, S100G
# VL: B1 VL with N76S, D94E, V96S
# notes: also called clamping antibody CLA0028
# B3: CLA0311 Fab fragment (from CLA0311VH-F760mnP17/CLA0311VL-k0C) (Fab, V domains shown)
# VH: QSLEESGGGLVQPEGSLTLTCTASGFSLSSSYWICWVRQAPGKGLEWIGCIYTGSGGATHYASWAKGRFTISKTSSTTVTLQMTSLTAADTATYFCASAESGYYAGFFFAPWGPGTLVTVSS
# VL: AFELTQTPSSVEAAVGGTVTIKCQASESIYSGLAWYKQKPGQPPKLLIYSASTLASGVSSRFKGSGSGTQFTLTISDLECADAATYYCQSYYGGSVTGYNTFGGGTEVVVKR
# notes: Fab prepared from the full antibody with the Pierce Fab Preparation Kit; also called clamping antibody CLA0311
# B4: SC019 (antibody, human IgG1, lambda, V domains shown)
# VH: EVQLVESGGGLVKPGGSLRLSCAASGFTFSDYYMSWIRQAPGKGLEWVSYISSSGSTIYYADSVKGRFTISRDNAKNSLYLQMNSLRAEDTAVYYCARASPNVNEGAFDIWGQGTMVTVSS
# VL: QSVLTQPPSMSAAPGQKVTISCSGSGSNIGSSYVSWYQQLPGKAPRLLIYDNNKQVSWVPDRFSGSKSGTSASLVISGLQTGDEADYYCGTWDRSLSAGVFGGGTKVTVLG
# notes: also called adenosine-clamping antibody SC019
# B5: SC034 (antibody, human IgG1, lambda, V domains shown)
# VH: QVQLQQSGAEVKKPGASVKVSCKASGYTFTSYGISWVRQAPGQGLEWMGWISAYNGNTNYAQKLQGRVTMTTDTSTSTAYMELRSLRSDDTAVYYCARDYHSTRPDWPPFPYYYYYGMDVWGQGTTVTVSS
# VL: QSVLTQPHSVSESPGKTVTISCTRSSGRIAANNVQWYQQRPGSAPTTIIYEDNRRPSGVPDRFSGSIDGSSNSASLTISGLKPEDEADYYCQSYVSTTVVFGGGTKLTVLG
# notes: also called adenosine-clamping antibody SC034
# B6: SC032 (antibody, human IgG1, kappa, V domains shown)
# VH: QVQLQQSGAEVKKPGSSVKVSCKASGGTFSSYAISWVRQAPGQGLEWMGRIIPILGIANYAQKFQGRVTITADKSTSTAYMELSSLRSEDTAVYYCAREGLTPYYYGSELGNGMDVWGQGTTVTVSS
# VL: DIQLTQSPSSLSTFVGDRVTITCRTSQNINSYLNWYQQKPGKAPKLLISTTSNLQSGVPSRFSGSGSGTDFTLTINNLQPEDFAIYYCQQTKSFPLTFGGGTKLEIKR
# notes: also called adenosine-clamping antibody SC032
# B7: SC001 (antibody, human IgG1, lambda, V domains shown)
# VH: QVQLVQSGGGVVQPGRSLRLSCAASGFTFSSYAMHWVRQAPGKGLEWVAVISYDGSNKYYADSVKGRFTISRDNSKNTLYLQMNSLRAEDTAVYYCARVYQGGATPYYYYGMDVWGQGTMVTVSS
# VL: SYELTQPPSASGTPGQRVTVSCSGSTSNIGNHAVNWYQQLPGTAPKLLIYTNDQRPSGVPNRFSGSKSGISASLAISGLQSEDEADYYCSAWDDSLIGYVFGAGTKVTVLG
# notes: also called adenosine-clamping antibody SC001
# B8: SC016 (antibody, human IgG1, lambda, V domains shown)
# VH: EVQLVQSGGGLVQPGRSLRLSCAASGFTFDNHAMHWVRQAPGKGLEWVSRINWNSGGIDYADSVKGRFTISRDNAKNSLYLQMNSLRAEDTALYYCVKDRGSGWYDAFDLWGQGTMVTVSS
# VL: SYELTQPPSVSVAPGQTTRIACGGDSVGSESVHWYQQRPGQAPVLVISYDSDRPSGIPERFSGSKSGNTATLTISRVEAGDEADYYCQVWNSASDHWVFGGGTKLTVLG
# notes: also called adenosine-clamping antibody SC016
# B9: SC048 (antibody, human IgG1, lambda, V domains shown)
# VH: QVQLQESGGGVVQPGRSLRLSCAASGFTFSSYAMHWVRQAPGKGLEWVAVISYDGSNKYYADSVKGRFTISRDNSKNTLYLQMNSLRAEDTAVYYCAKGYSYGPGYFFDYWGQGTLVTVSS
# VL: SSELTQPPSVSVSPGQTANISCSADKLGGKYVSWYQQKPGQSPVLVMYQDKKRPSGIPERLSGSGSGNTATLTISGTQAMDEATYYCQTWDGRSLFFGGGTRLTVLS
# notes: also called adenosine-clamping antibody SC048
# B10: SC014 (antibody, human IgG1, lambda, V domains shown)
# VH: EVQLVQSGGGLVQPGRSLRLSCAASGFTFDDYAMHWVRQAPGKGLEWVSGISWNSGSIGYADSVKGRFAISRDNAKNSLYLQMNSLRAEDTALYYCAKAWNDDAFDIWGQGTMVTVSS
# VL: QSVVTQPPSVSGAPGQRVTVSCTGSNSNIGAGYDVHWYQQLPGTAPKLLIYGSNNRPSGVPDRFSASRSGTSASLAITGLQAEDEAEYYCQTYDTGLSGPGVVFGGGTKVTVLS
# notes: also called adenosine-clamping antibody SC014
# B11: SC044 (antibody, human IgG1, lambda, V domains shown)
# VH: not shown
# VL: QSVLTQPPSVSGAPGQRVTISCTGSSSNIGAGYDVHWYQQLPGTAPKLLIYGNSNRPSGVPDRFSGSKSGTSASLAITGLQAEDEADYYCQSYDDSRSAVVFGGGTKLTVLG
# notes: also called adenosine-clamping antibody SC044
# B12: SC045 (antibody, human IgG1, lambda, V domains shown)
# VH: QVQLVESGGGLVQPGGSLRLSCAASGFTFSDHYMDWVRQAPGKGLEWVGRTRNKANSYTTEYAASVKGRFTISRDDSKNSLYLQMNSLKTEDTAVYYCARGPTLAYIGYMDYWGQGTLVTVSS
# VL: B11 VL with D95G, R97L, A99V
# notes: also called adenosine-clamping antibody SC045
# B13: SC003 (antibody, human IgG1, lambda, V domains shown)
# VH: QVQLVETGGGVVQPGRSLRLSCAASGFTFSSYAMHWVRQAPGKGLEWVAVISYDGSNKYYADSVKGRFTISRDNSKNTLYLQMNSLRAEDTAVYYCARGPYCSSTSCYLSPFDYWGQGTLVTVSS
# VL: QSVLTQPPSVSAAPGQKVTISCSGNTSNIGNNYVSWYQQLPGTAPKLLIYRNSDRPSGVPDRFSGSKSGTSASLAITGLQAEDEADYYCQSYDTSLTAVIFGGGTKLTVLG
# notes: also called adenosine-clamping antibody SC003
# B14: SC002 (antibody, human IgG1, lambda, V domains shown)
# VH: EVQLVQSGAEVKKPGASVKVSCKASGYTFTSYGISWVRQAPGQGLEWMGWISAYNGNTNYAQKLQGRVTMTTDTSTSTAYMELRSLRSDDTAVYYCARVSSGSQPDPPYYYYYGMDVWGQGTMVTVSS
# VL: QSVLTQPASVSGSPGQSITISCTGTSSNVESYNLVSWYQQHPGKAPKFIIYEGTRRPSGISNRFSGANSGNAASLTISGLQAEDEADYYCLSYVPSRRRHVFGTGTKVTVLS
# notes: also called adenosine-clamping antibody SC002
# Target: CD3 antibody CE115HA146 (CE115HA146-F760mnP17/GLS3000-k0)
# Assay: SPR (Biacore), 37 C; ligand antibody captured on SuRe protein A chip (1000 RU), Fab as analyte at 100 nM for 180 s; amount of binding per 1 RU of ligand
# Protocol: (§1) SuRe protein A (GE Healthcare) prepared at 25 μg/mL using Acetate4.5 (GE Healthcare) was immobilized on sensor chip CM4 at approximately 1000 RU per flow cell using an amine coupling kit (GE Healthcare).
# (§2) First, to evaluate the binding specificity of the clamping antibodies, a ligand was reacted at 37° C. for 60 seconds at a flow rate of 10 μL/min to capture 1000 RU, and an analyte prepared at 100 nM was allowed to act for 180 seconds at a flow rate of 30 μL/min, and the amount of binding was measured.
# CD3 antibody CE115HA146 (CE115HA146-F760mnP17/GLS3000-k0), sequence (heavy, as listed by the source, chain 1 of 2): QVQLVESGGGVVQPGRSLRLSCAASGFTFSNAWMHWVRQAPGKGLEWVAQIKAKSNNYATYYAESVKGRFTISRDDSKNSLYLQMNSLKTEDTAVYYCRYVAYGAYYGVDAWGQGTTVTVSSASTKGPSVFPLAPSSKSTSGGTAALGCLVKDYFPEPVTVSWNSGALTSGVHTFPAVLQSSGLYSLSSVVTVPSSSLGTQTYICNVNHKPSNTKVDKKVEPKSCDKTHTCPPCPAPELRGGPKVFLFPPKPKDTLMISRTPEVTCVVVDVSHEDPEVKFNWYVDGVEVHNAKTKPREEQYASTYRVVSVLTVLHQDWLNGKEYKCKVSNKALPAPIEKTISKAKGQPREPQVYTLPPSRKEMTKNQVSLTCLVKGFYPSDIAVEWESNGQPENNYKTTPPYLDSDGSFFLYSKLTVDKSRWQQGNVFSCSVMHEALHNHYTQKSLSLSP
# CD3 antibody CE115HA146 (CE115HA146-F760mnP17/GLS3000-k0), sequence (light, as listed by the source, chain 2 of 2): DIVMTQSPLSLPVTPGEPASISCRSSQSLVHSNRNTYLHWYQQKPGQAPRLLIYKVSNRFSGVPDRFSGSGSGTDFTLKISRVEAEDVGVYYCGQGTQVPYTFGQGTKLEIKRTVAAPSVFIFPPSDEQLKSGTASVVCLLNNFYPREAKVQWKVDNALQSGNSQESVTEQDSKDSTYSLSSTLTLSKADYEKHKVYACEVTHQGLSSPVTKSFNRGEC
row,Binder,binding result
1,B1,no binding (tested: 100 nM)
2,B2,no binding (tested: 100 nM)
3,B3,no binding (tested: 100 nM)

# Target: T1, negative control IC17 (IC17Hdk-F760mnP17/IC17L-k0)
# T1 construct: also called anti-KLH antibody
# Assay: as above
# Protocol: as §1, §2
# T1 sequence (VH, as listed by the source, chain 1 of 2): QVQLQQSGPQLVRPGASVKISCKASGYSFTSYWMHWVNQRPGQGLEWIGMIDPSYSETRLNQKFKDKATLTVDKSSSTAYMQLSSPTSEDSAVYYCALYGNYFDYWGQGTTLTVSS
# T1 sequence (VL, as listed by the source, chain 2 of 2): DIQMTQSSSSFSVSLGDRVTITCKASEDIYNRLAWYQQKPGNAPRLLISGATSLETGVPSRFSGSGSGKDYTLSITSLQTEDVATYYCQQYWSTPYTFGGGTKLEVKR
row,Binder,binding result
1,B1,no binding (tested: 100 nM)
2,B2,no binding (tested: 100 nM)
3,B3,no binding (tested: 100 nM)

# Target: CD3 antibody CE115HA056 (CE115HA056-F760mnP17/GLS3000-k0)
# Assay: as above
# Protocol: as §1, §2
# CD3 antibody CE115HA056 (CE115HA056-F760mnP17/GLS3000-k0), sequence (heavy, as listed by the source, chain 1 of 2): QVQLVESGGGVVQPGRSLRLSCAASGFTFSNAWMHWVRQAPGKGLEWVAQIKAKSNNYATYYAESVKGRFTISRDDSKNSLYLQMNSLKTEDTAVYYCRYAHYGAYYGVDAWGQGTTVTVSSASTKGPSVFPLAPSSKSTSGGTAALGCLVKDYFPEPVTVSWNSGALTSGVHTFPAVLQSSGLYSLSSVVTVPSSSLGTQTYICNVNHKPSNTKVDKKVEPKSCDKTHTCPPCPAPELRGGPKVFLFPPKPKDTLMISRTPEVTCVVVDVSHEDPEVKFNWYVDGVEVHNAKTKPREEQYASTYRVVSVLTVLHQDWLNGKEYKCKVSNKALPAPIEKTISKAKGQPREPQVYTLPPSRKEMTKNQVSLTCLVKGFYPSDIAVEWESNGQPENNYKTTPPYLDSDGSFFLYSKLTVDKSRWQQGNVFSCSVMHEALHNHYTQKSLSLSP
row,Binder,binding result
1,B1,no binding (tested: 100 nM)
2,B2,no binding (tested: 100 nM)
3,B3,no binding (tested: 100 nM)

# Target: T2, CD3ε epitope-fused GPC3 antibody (hGC33VHGP01-rabCH1hG1m/hGC33VL-rabk)
# T2 construct: control for recognition of the peptide alone
# Assay: as above
# Protocol: as §1, §2
# T2 sequence (VH, as listed by the source, chain 1 of 2): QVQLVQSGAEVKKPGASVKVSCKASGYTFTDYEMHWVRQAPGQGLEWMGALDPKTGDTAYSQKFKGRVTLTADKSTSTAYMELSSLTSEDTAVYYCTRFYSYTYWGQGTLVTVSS
# T2 sequence (VL, as listed by the source, chain 2 of 2): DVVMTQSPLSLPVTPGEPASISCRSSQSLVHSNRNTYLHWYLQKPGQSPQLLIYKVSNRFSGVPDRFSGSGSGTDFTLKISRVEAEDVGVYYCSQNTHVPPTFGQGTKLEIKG
row,Binder,binding result
1,B1,no binding (tested: 100 nM)
2,B2,no binding (tested: 100 nM)
3,B3,no binding (tested: 100 nM)

# Target: CD3 antibody CE115HA000 (CE115HA000-F760mnP17/GLS3000-k0)
# Assay: as above
# Protocol: as §1, §2
# CD3 antibody CE115HA000 (CE115HA000-F760mnP17/GLS3000-k0), sequence (VH, as listed by the source, chain 1 of 2): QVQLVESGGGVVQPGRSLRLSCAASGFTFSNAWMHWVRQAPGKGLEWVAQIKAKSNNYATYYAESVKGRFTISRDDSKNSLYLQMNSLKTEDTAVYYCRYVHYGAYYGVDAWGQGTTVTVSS
# CD3 antibody CE115HA000 (CE115HA000-F760mnP17/GLS3000-k0), sequence (VL, as listed by the source, chain 2 of 2): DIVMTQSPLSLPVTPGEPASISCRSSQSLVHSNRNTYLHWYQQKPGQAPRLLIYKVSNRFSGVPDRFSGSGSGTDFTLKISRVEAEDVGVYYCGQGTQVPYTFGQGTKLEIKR
row,Binder,binding result
1,B1,no binding (tested: 100 nM)
2,B2,no binding (tested: 100 nM)
3,B3,no binding (tested: 100 nM)

# Target: T3, CD3ε epitope-fused CE115HA146 (CE115HAGP13-rabIgG/GLS3000-rabk)
# T3 construct: stands for the antigen/antibody complex; Rabbit constant regions; also called CE115HAPG13
# Assay: SPR (Biacore T200), ligand captured on protein A, Fab 0-400 nM as analyte, 37 C
# Protocol: as §1
# (§3) The sensor chip was regenerated by passing Glycine1.5 and 25 mM NaOH, each at a flow rate of 30 μL/min for 15 seconds. The dissociation constant KD (M) was calculated based on the association rate constant ka (1/Ms) and the dissociation rate constant kd (1/s), which are kinetic parameters calculated from the sensorgram obtained by the measurement. Biacore T200 Evaluation Software (GE Healthcare) was used for calculation of each parameter.
# T3 sequence (heavy, as listed by the source, chain 1 of 2): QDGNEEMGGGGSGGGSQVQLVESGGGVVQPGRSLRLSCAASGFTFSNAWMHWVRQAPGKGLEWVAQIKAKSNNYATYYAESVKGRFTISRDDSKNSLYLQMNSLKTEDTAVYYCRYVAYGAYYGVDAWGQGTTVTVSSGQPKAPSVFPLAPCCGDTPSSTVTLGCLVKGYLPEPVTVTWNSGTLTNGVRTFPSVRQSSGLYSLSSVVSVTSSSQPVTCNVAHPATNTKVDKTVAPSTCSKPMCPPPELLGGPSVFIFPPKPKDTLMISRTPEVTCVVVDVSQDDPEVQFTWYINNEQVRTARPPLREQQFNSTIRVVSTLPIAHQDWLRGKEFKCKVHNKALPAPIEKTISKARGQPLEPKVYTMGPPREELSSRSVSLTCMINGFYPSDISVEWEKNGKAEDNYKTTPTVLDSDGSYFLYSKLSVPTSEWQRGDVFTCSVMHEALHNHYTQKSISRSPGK
# T3 sequence (light, as listed by the source, chain 2 of 2): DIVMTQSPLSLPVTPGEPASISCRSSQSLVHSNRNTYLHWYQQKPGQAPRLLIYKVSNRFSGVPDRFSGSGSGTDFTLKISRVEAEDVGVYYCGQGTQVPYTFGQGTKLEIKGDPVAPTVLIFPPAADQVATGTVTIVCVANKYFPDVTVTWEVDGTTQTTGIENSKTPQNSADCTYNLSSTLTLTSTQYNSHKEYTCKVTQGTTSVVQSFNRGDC
row,Binder,Kd
1,B1,17 nM
2,B2,78 nM

# Target: T4, CD3ε epitope-fused CE115HA056 (CE115HAGP12-rabIgG/GLS3000-rabk)
# T4 construct: rabbit constant regions; also called CE115HAPG12
# Assay: as above
# Protocol: as §1, §3
# T4 sequence (heavy, as listed by the source, chain 1 of 2): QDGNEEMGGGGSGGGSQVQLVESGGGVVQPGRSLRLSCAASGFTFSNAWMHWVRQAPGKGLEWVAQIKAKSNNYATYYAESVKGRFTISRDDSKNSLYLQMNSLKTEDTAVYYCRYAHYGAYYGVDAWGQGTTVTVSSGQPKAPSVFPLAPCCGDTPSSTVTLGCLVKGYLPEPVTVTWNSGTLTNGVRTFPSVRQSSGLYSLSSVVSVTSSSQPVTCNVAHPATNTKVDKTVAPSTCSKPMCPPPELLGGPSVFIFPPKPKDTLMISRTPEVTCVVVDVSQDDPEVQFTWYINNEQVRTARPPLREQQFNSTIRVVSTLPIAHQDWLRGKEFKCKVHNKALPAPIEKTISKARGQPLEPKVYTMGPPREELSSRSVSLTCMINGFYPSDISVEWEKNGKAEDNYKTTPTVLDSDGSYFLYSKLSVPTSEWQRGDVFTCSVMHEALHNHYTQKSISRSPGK
row,Binder,Kd
1,B1,14 nM
2,B2,74 nM

# Target: T5, adenosine-binding antibody SMB0002hH-G1m3/SMB0002hL-k0a
# T5 construct: also called biotinylated SMB0002hH-G1m3/SMB0002hL-k0
# Assay: BLI (OctetHTX), target on streptavidin sensor, antibody 10 ug/mL, 30 C, with and without adenosine
# Protocol: Evaluation of the binding of each prepared and purified antibody to a complex of adenosine with an adenosine-binding antibody was performed using OctetHTX (ForteBio). Specifically, biotinylated SMB0002Fab prepared by the method described in Example 9, which was prepared with TBS or adenosine/TBS or SMB0002hH-G1m3/SMB0002hL-k0a biotinylated with EZ-Link Sulfo-NHS-SS-Biotin was bound to Dip and Read™ Streptavidin (SA) Biosensors (ForteBio). Subsequently, each purified antibody prepared at 10 μg/mL using TBS or adenosine/TBS was allowed to act, and the binding at 30° C. was evaluated.
# T5 sequence (VH, as listed by the source, chain 1 of 2): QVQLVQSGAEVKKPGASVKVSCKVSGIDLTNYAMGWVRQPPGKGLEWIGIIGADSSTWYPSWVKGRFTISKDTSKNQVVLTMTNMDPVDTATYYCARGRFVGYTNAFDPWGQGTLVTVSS
# T5 sequence (V domain, as listed by the source, chain 2 of 2): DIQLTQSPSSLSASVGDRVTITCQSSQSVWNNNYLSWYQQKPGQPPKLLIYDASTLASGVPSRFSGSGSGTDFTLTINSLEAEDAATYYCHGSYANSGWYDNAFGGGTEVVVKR
row,Binder,binding result
1,B4,binds
2,B5,binds
3,B6,binds
4,B7,binds
5,B8,binds
6,B9,binds
7,B10,binds
8,B11,binds
9,B12,binds
10,B13,binds
11,B14,binds
